T1: human LAMA4 LG1-3 modules displayed on 293 cells (human, UniProt Q16363 830-1430)
T1 construct: pDisplay construct on 293 cells; vector tags and anchor not written here
T1 sequence: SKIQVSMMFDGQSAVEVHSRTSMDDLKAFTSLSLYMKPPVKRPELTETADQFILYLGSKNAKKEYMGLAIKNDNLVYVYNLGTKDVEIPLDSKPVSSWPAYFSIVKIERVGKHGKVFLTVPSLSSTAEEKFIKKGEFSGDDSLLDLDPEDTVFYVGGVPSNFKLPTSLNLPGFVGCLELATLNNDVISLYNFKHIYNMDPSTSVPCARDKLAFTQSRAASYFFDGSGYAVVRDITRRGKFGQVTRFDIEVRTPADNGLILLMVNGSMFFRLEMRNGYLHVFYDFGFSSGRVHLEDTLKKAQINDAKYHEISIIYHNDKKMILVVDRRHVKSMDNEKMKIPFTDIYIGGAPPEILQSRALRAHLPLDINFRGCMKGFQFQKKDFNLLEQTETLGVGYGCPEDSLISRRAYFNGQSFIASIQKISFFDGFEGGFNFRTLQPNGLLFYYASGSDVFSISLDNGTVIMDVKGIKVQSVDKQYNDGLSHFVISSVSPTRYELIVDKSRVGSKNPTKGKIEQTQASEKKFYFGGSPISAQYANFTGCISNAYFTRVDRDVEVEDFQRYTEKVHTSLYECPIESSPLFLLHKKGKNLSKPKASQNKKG

T2: LGde2, human LAMA4 G domain with LG2 deleted, displayed on 293 cells (human, UniProt Q16363 830-1821, limits assumed)
T2 construct: pDisplay construct on 293 cells; vector tags and anchor not written here; also called LGde2 (LG13)
T2 sequence: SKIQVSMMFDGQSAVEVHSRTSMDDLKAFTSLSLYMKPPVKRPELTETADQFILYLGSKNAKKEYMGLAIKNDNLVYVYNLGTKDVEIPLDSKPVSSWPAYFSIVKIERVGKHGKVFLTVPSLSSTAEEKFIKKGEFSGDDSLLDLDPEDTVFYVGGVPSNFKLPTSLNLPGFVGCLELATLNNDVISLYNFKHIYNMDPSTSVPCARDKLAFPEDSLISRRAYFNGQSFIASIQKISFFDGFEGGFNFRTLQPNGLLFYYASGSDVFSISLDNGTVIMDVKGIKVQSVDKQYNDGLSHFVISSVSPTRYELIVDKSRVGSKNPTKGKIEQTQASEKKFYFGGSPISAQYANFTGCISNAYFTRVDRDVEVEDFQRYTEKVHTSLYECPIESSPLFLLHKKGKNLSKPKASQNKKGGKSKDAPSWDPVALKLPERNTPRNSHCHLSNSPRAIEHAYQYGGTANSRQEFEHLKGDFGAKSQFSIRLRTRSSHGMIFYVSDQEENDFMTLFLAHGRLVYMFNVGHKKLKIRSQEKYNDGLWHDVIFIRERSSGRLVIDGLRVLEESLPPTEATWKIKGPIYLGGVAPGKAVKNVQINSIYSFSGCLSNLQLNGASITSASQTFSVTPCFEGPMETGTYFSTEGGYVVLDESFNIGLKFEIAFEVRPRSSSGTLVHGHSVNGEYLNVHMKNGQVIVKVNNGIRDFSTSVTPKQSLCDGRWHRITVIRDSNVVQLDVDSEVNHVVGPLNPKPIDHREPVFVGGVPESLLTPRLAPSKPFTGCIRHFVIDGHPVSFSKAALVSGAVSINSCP

T3: human LAMA4 LG4-5 modules displayed on 293 cells (human, UniProt Q16363 1453-1821)
T3 construct: pDisplay construct on 293 cells; vector tags and anchor not written here
T3 sequence: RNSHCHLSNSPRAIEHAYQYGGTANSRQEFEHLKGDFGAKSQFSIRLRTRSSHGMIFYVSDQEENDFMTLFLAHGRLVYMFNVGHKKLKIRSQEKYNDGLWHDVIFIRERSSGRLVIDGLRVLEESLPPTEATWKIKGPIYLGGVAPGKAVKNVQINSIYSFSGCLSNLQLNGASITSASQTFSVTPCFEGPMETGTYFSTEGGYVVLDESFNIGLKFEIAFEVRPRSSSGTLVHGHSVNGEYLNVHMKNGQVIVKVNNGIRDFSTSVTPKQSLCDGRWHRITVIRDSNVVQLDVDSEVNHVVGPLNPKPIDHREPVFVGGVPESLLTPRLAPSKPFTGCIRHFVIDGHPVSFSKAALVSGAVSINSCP

B1: mouse MCAM-Fc fusion protein (Fc fusion, UniProt Q8R2Y2 24-563, looked up)
chain: VPGEEKQPVPTPDLVEAEVGSTALLKCGPSRASGNFSQVDWFLIHKERQILIFRVHQGKGQREPGEYEHRLSLQDSVATLALSHVTPHDERMFLCKSKRPRLQDHYVELQVFKAPEEPTIQANVVGIHVDRQELREVATCVGRNGYPIPQVLWYKNSLPLQEEENRVHIQSSQIVESSGLYTLKSVLSARLVKEDKDAQFYCELSYRLPSGNHMKESKEVTVPVFYPAEKVWVEVEPVGLLKEGDHVTIRCLTDGNPQPHFTINKKDPSTGEMEEESTDENGLLSLEPAEKHHSGLYQCQSLDLETTITLSSDPLELLVNYVSDVQVNPTAPEVQEGESLTLTCEAESNQDLEFEWLRDKTGQLLGKGPVLQLNNVRREAGGRYLCMASVPRVPGLNRTQLVSVGIFGSPWMALKERKVWVQENAVLNLSCEASGHPQPTISWNVNGSATEWNPDPQTVVSTLNVLVTPELLETGAECTASNSLGSNTTTIVLKLVTLTTLIPDSSQTTGLSTLTVSPHTRANSTSTEKKLPQPESKGVV
notes: extracellular domain; Made in house; also called mMCAM-Fc; 650-conjugated mouse MCAM-Fc; not shown: human IgG1 (Fc part of the fusion)
B2: mouse monoclonal antibody 19C12 (antibody, V domains shown)
VH: QVQLQQSGAELVKPGASVKISCKASGYAFSTYWMNWVKQRPGEGLEWIGQIYPGDGDTNYNGKFKGKATLTADKSSSTAYMQLSSLTSEDSAVYFCARSDGYYDYWGQGTTLTVSS
VL: NIVLTQSPASLAVSLGQRATISCRASESVDSYGTSFMHWYQQKPGQPPKLLICLASSLESGVPARFSGSGSRTDFTLTIDPVEADDAATYYCQQNNEDPPTFGAGTKLELKR
notes: Mouse hybridoma antibody; Mouse IgG2b was used as its isotype control; also called m19C12

How the values were obtained:
[1] = target: T1, human LAMA4 LG1-3 modules displayed on …; assay: flow cytometry on 293 cells displaying LAMA4 G-domain variants; % binding
Excerpt: (§1) LGde1 has a full-length G domain (i.e., LG1-5) with LG1 deleted, LGde2 has a full-length G domain with LG2 deleted, and LGde3 has a full-length G domain with LG3 deleted. Recombinant MCAM-Fc protein was able to specifically bind 293 cells expressing LAMA4 variants LG1-5, LG1-3, and LGde 1 (LG23), but not 293 cells expressing LAMA 4 variants LG4-5, LGde2 (LG13), or LGde3 (LG12).

[2] = target: T2, LGde2, human LAMA4 G domain with LG2 …; assay: flow cytometry, 650-labeled MCAM-Fc on 293 cells displaying the variant
Excerpt: as §1

[3] = target: T3, human LAMA4 LG4-5 modules displayed on …; assay: flow cytometry on 293 cells displaying LAMA4 G-domain variants; % binding
Excerpt: as §1

recombinant laminin 411 = recombinant laminin 411 (human, UniProt P07942 22-1786; P11047 34-1609, limits assumed); assay: cell-based or functional assay
Sequence of recombinant laminin 411 (chain, as listed by the source limits assumed, chain 1 of 3): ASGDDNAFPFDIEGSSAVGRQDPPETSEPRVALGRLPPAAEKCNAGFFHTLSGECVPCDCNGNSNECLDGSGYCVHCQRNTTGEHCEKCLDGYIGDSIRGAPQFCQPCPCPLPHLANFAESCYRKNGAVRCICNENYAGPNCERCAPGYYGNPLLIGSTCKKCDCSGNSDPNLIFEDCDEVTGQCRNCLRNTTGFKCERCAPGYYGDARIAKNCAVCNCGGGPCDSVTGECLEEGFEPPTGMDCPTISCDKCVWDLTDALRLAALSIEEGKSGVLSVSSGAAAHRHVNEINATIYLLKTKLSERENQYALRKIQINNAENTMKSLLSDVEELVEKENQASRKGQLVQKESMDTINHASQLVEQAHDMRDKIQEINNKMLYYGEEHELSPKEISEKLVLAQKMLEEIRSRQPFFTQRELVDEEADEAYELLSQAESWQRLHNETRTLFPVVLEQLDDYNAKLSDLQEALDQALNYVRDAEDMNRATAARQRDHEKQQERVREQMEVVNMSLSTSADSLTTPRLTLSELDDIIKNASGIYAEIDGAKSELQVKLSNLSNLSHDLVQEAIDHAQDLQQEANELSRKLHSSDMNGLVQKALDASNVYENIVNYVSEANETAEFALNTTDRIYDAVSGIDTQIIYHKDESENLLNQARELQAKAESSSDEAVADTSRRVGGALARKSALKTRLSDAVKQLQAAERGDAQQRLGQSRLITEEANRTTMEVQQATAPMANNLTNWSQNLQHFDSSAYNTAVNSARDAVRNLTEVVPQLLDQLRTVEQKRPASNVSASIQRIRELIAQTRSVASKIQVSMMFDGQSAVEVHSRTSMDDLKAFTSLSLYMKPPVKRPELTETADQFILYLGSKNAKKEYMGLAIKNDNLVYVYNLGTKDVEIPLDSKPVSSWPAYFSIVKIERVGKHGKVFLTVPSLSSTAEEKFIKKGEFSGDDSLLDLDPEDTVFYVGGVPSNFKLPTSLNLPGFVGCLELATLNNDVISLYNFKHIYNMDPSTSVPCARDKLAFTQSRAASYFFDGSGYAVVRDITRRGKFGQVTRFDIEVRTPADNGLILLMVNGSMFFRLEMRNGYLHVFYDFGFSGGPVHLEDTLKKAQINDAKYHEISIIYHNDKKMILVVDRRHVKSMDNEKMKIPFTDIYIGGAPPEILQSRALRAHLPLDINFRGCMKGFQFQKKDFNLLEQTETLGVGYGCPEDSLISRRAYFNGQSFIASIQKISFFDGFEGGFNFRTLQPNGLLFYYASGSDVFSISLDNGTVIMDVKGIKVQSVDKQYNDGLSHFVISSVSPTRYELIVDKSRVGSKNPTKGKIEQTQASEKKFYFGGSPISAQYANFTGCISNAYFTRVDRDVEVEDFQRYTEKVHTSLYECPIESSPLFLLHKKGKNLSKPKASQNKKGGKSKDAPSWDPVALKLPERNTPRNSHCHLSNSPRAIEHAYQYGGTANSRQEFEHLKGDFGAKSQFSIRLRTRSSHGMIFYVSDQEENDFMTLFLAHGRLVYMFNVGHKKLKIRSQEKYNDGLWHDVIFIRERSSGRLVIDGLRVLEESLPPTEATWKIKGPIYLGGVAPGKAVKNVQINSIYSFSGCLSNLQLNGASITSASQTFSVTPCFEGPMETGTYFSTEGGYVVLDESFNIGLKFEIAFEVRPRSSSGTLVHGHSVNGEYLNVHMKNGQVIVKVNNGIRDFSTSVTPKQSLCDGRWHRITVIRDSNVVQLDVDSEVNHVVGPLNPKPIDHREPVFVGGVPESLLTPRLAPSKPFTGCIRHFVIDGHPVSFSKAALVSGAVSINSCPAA
Sequence of recombinant laminin 411 (P07942 22-1786 limits assumed, chain 2 of 3): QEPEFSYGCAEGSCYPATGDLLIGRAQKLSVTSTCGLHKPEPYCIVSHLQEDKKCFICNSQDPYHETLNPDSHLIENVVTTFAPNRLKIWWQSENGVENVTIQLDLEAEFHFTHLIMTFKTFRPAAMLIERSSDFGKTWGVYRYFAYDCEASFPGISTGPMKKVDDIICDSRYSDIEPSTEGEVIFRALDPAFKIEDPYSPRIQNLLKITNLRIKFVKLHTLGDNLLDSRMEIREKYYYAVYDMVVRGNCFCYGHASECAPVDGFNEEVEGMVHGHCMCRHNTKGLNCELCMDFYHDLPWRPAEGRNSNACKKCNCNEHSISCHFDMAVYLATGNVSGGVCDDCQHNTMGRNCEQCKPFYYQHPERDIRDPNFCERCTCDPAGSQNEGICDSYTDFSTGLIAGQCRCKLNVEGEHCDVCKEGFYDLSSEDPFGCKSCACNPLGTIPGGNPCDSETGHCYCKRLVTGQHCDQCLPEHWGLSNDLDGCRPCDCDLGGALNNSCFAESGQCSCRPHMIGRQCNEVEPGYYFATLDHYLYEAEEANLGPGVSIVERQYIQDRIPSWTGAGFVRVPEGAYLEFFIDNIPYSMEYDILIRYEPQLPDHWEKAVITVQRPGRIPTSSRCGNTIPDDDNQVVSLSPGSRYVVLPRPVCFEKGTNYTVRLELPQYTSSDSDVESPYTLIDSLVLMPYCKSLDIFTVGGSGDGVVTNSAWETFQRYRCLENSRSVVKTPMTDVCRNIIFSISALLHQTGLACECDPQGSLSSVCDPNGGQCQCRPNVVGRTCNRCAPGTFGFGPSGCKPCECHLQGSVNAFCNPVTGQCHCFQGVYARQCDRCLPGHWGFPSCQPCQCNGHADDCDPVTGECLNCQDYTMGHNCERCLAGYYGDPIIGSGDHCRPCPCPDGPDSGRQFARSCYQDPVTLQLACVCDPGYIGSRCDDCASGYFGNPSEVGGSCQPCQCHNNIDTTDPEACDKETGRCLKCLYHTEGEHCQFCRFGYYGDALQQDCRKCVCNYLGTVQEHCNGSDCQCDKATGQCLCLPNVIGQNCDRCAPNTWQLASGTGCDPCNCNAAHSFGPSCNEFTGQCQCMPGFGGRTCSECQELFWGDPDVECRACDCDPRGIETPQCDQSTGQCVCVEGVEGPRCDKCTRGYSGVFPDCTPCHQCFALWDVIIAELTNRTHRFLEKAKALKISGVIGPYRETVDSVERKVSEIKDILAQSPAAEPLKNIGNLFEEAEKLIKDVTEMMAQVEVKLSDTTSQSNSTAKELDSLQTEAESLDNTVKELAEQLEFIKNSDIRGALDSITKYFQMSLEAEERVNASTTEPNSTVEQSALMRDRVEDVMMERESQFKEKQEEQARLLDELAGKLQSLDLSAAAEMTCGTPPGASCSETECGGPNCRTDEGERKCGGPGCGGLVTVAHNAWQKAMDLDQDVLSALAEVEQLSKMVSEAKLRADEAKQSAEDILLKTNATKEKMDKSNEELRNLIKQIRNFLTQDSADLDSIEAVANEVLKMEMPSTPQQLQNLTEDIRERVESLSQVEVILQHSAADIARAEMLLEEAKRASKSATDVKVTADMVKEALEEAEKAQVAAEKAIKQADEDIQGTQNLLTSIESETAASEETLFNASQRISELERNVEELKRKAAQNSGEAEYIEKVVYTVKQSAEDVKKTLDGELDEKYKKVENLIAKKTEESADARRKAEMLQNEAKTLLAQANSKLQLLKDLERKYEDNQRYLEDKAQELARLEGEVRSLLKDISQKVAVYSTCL
Sequence of recombinant laminin 411 (P11047 34-1609 limits assumed, chain 3 of 3): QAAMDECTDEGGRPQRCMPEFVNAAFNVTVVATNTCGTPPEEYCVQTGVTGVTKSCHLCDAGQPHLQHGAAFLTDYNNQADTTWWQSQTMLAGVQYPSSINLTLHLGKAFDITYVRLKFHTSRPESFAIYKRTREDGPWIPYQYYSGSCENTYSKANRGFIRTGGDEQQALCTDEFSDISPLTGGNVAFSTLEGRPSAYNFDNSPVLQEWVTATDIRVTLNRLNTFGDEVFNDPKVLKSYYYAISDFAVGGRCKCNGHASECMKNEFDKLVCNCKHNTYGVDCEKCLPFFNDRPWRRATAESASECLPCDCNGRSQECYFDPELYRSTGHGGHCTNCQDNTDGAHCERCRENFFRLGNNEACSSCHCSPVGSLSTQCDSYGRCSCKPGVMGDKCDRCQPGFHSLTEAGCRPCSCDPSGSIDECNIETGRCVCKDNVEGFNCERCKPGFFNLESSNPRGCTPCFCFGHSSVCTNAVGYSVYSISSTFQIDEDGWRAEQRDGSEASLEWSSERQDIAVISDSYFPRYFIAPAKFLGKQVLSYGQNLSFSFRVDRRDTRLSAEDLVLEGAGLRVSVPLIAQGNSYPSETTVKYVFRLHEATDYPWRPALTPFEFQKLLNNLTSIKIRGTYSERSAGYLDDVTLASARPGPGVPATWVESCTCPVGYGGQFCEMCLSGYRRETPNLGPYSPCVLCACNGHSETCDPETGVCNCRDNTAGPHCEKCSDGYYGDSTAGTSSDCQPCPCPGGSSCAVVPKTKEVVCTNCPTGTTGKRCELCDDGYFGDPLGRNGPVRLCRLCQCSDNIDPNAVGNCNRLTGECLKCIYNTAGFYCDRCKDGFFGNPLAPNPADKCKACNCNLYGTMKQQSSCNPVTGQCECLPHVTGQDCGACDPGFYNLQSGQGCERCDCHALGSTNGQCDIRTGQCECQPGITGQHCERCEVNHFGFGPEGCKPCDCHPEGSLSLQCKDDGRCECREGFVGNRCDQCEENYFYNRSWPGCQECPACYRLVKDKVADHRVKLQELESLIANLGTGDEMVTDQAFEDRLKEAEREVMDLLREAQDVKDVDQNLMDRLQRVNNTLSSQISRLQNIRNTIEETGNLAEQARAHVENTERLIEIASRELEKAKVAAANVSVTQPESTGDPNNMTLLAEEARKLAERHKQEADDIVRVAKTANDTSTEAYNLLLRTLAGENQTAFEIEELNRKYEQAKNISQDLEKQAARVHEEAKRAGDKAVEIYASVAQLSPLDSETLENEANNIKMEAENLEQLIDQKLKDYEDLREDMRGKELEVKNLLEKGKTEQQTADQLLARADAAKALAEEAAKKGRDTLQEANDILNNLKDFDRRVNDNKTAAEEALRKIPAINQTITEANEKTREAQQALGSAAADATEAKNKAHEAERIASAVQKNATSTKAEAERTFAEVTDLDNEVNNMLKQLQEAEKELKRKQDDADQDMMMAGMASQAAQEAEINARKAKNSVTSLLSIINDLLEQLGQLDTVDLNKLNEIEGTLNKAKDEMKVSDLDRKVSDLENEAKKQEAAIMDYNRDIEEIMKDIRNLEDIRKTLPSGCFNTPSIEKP

Binder | binding result [1] | binding result [2] | binding result [3] | laminin-411-induced pAkt activation (pAkt/Akt ratio by immunoblot) in WM266.4 cells, 20 ug/ml antibody (recombinant laminin 411) [% inhibition]
B1 | binds | no binding |  | 
B2 |  |  | no binding | ~50

Reference: patent US20170158755A1 (PROTHENA BIOSCIENCES, published 2017)
